Data as given in patent CN112300289A (UNIV CHINA PHARMA, dated 2021).

Legend:
TNFα = experiment: cell-based or functional assay
整合素αvβ3 = biological target: T1, 整合素αvβ3 (human, UniProt P06756 31-1048; P05106 27-788); experiment: concluded from the MDA-MB-231 cell adhesion assay; no direct binding assay
T1 construct: whole, on cells; The adhesion assay used whole MDA-MB-231 cells; also called 整合素αvβ3受体; 玻连蛋白(Vitronectin,VN)受体
T1 sequence (P06756 31-1048, chain 1 of 2): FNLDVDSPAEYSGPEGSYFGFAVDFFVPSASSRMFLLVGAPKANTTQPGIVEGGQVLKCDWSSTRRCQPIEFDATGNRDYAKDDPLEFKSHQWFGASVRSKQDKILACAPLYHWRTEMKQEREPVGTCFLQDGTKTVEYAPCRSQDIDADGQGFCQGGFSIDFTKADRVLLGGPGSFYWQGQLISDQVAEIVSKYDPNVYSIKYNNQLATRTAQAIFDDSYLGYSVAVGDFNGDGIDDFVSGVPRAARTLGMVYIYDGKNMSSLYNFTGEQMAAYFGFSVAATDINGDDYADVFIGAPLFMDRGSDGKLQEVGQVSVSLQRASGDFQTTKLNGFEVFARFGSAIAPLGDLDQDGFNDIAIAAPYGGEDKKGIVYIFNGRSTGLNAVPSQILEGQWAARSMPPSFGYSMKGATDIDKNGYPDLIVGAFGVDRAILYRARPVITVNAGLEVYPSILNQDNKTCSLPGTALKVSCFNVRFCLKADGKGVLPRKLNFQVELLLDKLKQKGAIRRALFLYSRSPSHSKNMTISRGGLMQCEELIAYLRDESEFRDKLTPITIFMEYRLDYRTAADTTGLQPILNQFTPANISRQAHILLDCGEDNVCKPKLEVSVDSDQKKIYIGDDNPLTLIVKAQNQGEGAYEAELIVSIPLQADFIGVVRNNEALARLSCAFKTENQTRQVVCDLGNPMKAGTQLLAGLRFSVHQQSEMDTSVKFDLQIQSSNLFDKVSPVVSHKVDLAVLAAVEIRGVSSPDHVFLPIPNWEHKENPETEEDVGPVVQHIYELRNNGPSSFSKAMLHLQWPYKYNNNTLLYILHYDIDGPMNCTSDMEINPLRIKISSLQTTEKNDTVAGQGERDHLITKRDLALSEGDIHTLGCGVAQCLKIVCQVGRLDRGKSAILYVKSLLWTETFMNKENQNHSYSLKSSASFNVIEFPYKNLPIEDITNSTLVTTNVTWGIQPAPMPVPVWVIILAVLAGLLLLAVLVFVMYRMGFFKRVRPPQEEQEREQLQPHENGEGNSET
T1 sequence (P05106 27-788, chain 2 of 2): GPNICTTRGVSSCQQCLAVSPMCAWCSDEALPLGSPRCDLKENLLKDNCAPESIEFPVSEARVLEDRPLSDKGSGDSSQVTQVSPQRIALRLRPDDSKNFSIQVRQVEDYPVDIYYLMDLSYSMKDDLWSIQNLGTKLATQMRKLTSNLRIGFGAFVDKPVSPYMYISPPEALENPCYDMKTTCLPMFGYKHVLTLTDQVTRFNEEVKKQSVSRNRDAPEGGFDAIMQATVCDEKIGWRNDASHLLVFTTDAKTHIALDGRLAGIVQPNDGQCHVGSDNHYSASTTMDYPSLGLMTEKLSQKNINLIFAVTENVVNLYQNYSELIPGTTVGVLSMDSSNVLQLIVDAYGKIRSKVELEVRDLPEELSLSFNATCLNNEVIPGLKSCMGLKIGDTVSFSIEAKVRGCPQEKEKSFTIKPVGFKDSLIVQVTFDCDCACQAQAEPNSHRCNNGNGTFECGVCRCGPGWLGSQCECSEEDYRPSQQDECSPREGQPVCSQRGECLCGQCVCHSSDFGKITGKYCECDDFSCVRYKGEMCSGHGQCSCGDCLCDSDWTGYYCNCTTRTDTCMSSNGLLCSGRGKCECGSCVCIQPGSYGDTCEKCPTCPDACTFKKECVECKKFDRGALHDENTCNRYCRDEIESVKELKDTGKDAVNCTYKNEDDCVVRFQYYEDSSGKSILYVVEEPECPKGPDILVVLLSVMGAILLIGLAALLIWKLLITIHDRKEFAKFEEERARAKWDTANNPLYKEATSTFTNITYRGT

Chain of TNFα (P01375 77-233): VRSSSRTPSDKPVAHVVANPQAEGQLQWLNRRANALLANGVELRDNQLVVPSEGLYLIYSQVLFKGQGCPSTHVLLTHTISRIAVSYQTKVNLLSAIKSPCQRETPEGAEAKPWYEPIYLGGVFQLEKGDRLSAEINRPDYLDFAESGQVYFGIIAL

B1: RGD4C融合抗TNFα纳米抗体 N端-VHH-Linker-RGD4C-6HIS-C端 (VHH)
VHH: QVQLVESGGGLVQAGGSLRLSCTASGQTSSTADMGWFRQPPGKGREFVARISGIDGTTYYDEPVKGRFTISRDKAQNTVYLQMDSLKPEDTAVYYCRSPRYADQWSAYDYWGQGTQVTVSS
notes: also called V-L-R-H; RGD4C-anti-TNFα-Nanobody
- IC50, inhibition of TNFα cytotoxicity on L929 cells (MTT) (TNFα): 0.106 nM
- binding result (整合素αvβ3): binds

B2: RGD4C融合抗TNFα纳米抗体 N端-VHH-6HIS-Linker-RGD4C-C端 (VHH)
VHH: QVQLVESGGGLVQAGGSLRLSCTASGQTSSTADMGWFRQPPGKGREFVARISGIDGTTYYDEPVKGRFTISRDKAQNTVYLQMDSLKPEDTAVYYCRSPRYADQWSAYDYWGQGTQVTVSS
- IC50, inhibition of TNFα cytotoxicity on L929 cells (MTT) (TNFα): 0.113 nM

B3: RGD4C融合抗TNFα纳米抗体 N端-RGD4C-Linker-6HIS-VHH-C端 (VHH)
VHH: QVQLVESGGGLVQAGGSLRLSCTASGQTSSTADMGWFRQPPGKGREFVARISGIDGTTYYDEPVKGRFTISRDKAQNTVYLQMDSLKPEDTAVYYCRSPRYADQWSAYDYWGQGTQVTVSS
- IC50, inhibition of TNFα cytotoxicity on L929 cells (MTT) (TNFα): 0.187 nM
